Assay results as given in patent CN116731161A (UNIV NANKAI, dated 2023).

Target: T1, FcγRI (UniProt P12314 16-288)
T1 construct: also called CD64
Assay: SPR (Biacore T200), His-tagged target captured on anti-His chip, antibody as analyte

T1 sequence (P12314 16-288 limits assumed): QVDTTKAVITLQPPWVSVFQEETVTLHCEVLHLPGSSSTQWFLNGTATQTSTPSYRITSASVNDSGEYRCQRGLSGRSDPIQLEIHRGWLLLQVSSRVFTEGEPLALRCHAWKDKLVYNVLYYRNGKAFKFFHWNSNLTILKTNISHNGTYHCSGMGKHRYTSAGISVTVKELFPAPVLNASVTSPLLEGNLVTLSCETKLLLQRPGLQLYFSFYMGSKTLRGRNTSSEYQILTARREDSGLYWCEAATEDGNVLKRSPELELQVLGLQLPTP

- binding result: binds
B1: X构型Rituximab抗体 (antibody, human IgG1, kappa)
heavy: not shown
light: QIVLSQSPAILSASPGEKVTMTCRASSSVSYIHWFQQKPGSSPKPWIYATSNLASGVPVRFSGSGSGTSYSLTISRVEAEDAATYYCQQWTSNPPTFGGGTKLEIKRTVAAPSVFIFPPSDEQLKSGTASVVCLLNNFYPREAKVQWKVDNALQSGNSQESVTEQDSKDSTYSLSSTLTLSKADYEKHKVYACEVTHQGLSSPVTKSFNRGECGGGGSGGGGSGGGGSGGGGSGGGGSGGGGSVPPPPPCCHPRLSLHRPALEDLLLGSEANLTCTLTGLRDASGVTFTWTPSSGKSAVQGPPERDLCGCYSVSSVLPGCAEPWNHGKTFTCTAAYPESKTPLTATLSKSGNTFRPEVHLLPPPSEELALNELVTLTCLARGFSPKDVLVRWLQGSQELPREKYLTWASRQEPSQGTTTFAVTSILRVAAEDWKKGDTFSCMVGHEALPLAFTQKTIDRLAGK
notes: also called X构型抗体; Rituximab X-body
